# Experiments:
# [1] = target: human complement C9 (human) (UniProt P02748); assay: SPR; Biacore 3000; ten micrograms of human C7, C9 or plasminogen conjugated on a CM5 chip (2823, 2034 and 2106 RU); 0.0625 to 1 uM histidine tagged CspA protein flowed over at 10 uL/min, 25°C; 1:1 Langmuir model
# [2] = target: human complement C7 (human) (UniProt P10643); assay: as above
# [3] = target: human plasminogen (human); assay: as above
# [4] = target: factor H (FH) from mouse, purified (mouse (Mus musculus)) (UniProt P06909); assay: SPR; Biacore 3000; ten micrograms of FH from human, mouse or horse conjugated to a CM5 chip; CspA proteins injected at 10 μL/min, 25°C; 1:1 Langmuir model
# [5] = target: factor H (FH) from human, purified (human) (UniProt P08603); assay: as above
# [6] = target: factor H (FH) from mouse, purified (mouse (Mus musculus)) (UniProt P06909); assay: ELISA; one microgram of FH coated on microtiter wells; 0.03125 to 2 μM histidine-tagged CspA proteins or DbpA added; detected by mouse anti-histidine tag; KD from a one-site fit of OD405
# [7] = target: factor H (FH) from human, purified (human) (UniProt P08603); assay: as above
# [8] = target: factor H (FH) from horse (horse); assay: SPR; Biacore 3000; ten micrograms of FH from human, mouse or horse conjugated to a CM5 chip; CspA proteins injected at 10 μL/min, 25°C; 1:1 Langmuir model
# [9] = target: factor H (FH) from horse (horse); assay: ELISA; one microgram of FH coated on microtiter wells; 0.03125 to 2 μM histidine-tagged CspA proteins or DbpA added; detected by mouse anti-histidine tag; KD from a one-site fit of OD405
# [10] = target: factor H (FH) from Coturnix quail (Coturnix coturnix quail); assay: as above
# human complement C9 (human), sequence (P02748 22-559): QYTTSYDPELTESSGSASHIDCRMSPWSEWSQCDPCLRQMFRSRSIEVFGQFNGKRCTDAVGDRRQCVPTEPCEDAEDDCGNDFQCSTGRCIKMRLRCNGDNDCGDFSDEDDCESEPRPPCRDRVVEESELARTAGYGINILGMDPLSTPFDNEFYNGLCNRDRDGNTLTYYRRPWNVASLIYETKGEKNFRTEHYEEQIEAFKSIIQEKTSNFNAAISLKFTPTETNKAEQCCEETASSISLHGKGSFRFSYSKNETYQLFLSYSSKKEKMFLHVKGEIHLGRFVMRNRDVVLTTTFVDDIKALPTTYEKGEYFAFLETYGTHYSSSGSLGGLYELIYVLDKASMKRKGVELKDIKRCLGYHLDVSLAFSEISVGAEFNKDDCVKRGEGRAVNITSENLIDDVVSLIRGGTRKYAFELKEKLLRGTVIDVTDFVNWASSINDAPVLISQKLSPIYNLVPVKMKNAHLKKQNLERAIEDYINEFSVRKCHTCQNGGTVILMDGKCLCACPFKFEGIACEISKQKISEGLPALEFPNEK
# factor H (FH) from human, purified (human), sequence (P08603 19-1231): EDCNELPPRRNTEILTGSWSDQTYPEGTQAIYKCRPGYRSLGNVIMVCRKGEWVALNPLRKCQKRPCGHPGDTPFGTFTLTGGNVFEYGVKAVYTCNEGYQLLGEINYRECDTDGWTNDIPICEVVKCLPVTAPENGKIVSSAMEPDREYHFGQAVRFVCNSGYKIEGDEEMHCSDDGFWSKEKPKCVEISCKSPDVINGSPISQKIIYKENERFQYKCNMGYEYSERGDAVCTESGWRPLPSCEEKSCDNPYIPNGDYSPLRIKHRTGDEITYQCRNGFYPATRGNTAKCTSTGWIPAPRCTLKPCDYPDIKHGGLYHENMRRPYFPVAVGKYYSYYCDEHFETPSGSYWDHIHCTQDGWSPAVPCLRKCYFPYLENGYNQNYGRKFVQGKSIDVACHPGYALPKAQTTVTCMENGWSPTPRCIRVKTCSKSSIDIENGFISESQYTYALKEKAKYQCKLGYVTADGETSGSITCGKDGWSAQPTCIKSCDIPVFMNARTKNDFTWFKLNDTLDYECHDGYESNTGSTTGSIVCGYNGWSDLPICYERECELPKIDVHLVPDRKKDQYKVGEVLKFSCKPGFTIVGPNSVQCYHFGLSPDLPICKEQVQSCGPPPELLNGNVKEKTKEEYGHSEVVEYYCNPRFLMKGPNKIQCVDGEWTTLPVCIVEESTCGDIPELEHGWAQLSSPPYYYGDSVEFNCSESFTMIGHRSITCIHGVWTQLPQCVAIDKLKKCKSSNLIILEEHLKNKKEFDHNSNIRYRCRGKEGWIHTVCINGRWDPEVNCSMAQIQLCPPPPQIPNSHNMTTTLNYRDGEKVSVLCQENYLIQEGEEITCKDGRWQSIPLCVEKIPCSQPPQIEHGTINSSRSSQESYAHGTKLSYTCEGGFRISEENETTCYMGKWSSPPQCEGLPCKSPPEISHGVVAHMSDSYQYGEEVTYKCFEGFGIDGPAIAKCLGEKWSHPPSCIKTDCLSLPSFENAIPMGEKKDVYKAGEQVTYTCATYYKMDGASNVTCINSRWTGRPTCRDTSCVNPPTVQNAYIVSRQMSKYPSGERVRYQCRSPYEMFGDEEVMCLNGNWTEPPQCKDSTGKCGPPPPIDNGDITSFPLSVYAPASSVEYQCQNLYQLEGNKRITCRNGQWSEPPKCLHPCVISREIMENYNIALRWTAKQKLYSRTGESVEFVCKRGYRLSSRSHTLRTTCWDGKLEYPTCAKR
# factor H (FH) from mouse, purified (mouse (Mus musculus)), sequence (P06909 19-1234): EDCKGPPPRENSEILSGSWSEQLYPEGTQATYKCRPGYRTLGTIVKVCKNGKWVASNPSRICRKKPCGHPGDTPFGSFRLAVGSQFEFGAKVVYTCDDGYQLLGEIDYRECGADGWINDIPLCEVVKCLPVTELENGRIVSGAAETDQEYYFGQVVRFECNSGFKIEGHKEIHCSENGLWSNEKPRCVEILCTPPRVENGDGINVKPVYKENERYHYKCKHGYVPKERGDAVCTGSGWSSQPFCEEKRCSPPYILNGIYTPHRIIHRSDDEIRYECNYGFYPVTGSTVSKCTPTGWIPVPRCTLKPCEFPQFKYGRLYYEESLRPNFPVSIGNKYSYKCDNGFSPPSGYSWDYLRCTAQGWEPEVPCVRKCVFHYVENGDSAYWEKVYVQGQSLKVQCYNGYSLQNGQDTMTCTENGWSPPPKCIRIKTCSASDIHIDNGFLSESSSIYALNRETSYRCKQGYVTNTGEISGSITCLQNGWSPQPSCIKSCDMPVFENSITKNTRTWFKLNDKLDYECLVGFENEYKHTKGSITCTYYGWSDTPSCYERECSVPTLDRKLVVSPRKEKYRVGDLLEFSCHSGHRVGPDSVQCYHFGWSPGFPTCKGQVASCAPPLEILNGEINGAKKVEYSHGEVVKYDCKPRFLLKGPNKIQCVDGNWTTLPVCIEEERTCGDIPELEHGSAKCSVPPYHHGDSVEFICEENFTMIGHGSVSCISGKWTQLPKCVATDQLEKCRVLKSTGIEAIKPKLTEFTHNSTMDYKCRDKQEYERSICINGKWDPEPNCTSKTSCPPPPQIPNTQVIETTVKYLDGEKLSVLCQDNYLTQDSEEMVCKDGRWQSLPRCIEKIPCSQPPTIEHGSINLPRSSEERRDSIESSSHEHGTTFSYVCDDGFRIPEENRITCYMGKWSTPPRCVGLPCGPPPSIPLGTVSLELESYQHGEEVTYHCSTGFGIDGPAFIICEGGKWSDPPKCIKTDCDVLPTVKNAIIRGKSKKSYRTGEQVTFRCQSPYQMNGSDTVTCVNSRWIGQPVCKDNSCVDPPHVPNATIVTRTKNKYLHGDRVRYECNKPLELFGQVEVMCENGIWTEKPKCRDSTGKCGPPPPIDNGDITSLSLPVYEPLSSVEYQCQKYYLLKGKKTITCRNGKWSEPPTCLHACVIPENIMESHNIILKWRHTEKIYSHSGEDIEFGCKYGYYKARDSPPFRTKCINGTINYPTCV
# human complement C7 (human), sequence (P10643 23-843): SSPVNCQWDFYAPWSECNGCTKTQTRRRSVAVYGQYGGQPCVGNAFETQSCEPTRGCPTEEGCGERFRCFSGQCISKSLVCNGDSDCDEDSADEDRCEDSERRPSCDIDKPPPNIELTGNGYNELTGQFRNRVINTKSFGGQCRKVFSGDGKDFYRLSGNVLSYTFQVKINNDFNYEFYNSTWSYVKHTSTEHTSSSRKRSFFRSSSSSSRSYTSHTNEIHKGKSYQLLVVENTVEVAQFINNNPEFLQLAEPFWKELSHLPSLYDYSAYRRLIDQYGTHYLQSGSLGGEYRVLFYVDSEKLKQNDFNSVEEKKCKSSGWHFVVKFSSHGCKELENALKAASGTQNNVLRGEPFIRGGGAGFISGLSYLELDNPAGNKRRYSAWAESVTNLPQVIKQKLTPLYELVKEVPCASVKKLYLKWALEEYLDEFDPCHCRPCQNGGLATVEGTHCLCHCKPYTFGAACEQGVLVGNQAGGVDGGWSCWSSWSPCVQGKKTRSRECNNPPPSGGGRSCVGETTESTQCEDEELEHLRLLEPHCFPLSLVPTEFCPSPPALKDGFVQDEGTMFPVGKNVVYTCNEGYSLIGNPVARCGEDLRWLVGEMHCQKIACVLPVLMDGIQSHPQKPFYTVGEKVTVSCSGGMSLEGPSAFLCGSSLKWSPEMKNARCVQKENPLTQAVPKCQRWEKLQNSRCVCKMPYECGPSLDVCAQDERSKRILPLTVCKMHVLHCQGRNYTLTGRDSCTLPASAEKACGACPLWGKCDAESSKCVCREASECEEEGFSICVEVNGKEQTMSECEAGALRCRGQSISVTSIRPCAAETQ
Substance,Kd [1] [nM],koff [1] [s⁻¹],kon [1] [M⁻¹ s⁻¹],Kd [2] [nM],koff [2] [s⁻¹],kon [2] [M⁻¹ s⁻¹],Kd [3] [nM],koff [3] [s⁻¹],kon [3] [M⁻¹ s⁻¹],Kd [4] [nM],koff [4] [s⁻¹],kon [4] [M⁻¹ s⁻¹],Kd [5] [nM],koff [5] [s⁻¹],kon [5] [M⁻¹ s⁻¹],Kd [6] [nM],Kd [7] [nM],Kd [10] [nM],further results
"CspA (Bba68) from B. burgdorferi strain B31, histidine tagged, residue 26 to 252 (domain or fragment)",5470,0.32,60000,5260,0.45,94000,6350,0.26,43000,,,,,,,,,,
"CspA (Bba68) from B. burgdorferi strain B31, histidine tagged, residue 26 to 252 with leucine-246 replaced by aspartate (domain or fragment)",5400,0.36,70000,3500,0.38,143000,6480,0.29,49000,,,,,,,,,,
recombinant histidine-tagged CspA of B. afzelii strain PKo (CspAPKo) (from UniProt G0IU82 1-241) (natural protein),,,,,,,,,,460,0.048,115000,110,0.014,152000,760,160,,
recombinant histidine-tagged CspA of B. burgdorferi strain B31 (CspAB31) (natural protein),,,,,,,,,,70,0.012,188000,200,0.017,114000,230,410,920,Kd [8]: 550 nM; koff [8]: 0.014 s⁻¹; kon [8]: 30000 M⁻¹ s⁻¹; Kd [9]: 880 nM
recombinant histidine-tagged CspA of B. garinii strain ZQ1 (CspAZQ1) (natural protein),,,,,,,,,,,,,,,,,,360,
